According to patent US20190161548A1 (published 2019):
One block for each binder: values may come before it.

Legend:
[1] = target: T1, His-tagged soluble human PD-1 (human, UniProt Q15116 25-170); assay: ELISA; soluble human PD-1 coated; goat anti-human-Fcgamma-HRP, PICO chemiluminescent substrate
T1 construct: also called hPD-1-His; shPD-1
From the text: FIGS. 8A-8D show the results of ELISA studies measuring the binding of serially diluted binding molecules to human CTLA-4 and human PD-1. […] Goat anti-human-Fc-HRP (1:10,000) was employed as the secondary detection molecule to detect binding. FIGS. 8C-8D show the results of a study on the effect of altering orientations and binding domains on binding. […] Goat anti-human-Fcγ-HRP was employed as the secondary detection molecule to detect binding using PICO chemiluminescent substrate.
Goat anti-human-Fcγ-HRP was employed as the secondary detection molecule to detect binding using PICO chemiluminescent substrate.

[2] = target: T2, human CTLA-4 expressed on the cell surface (human, UniProt P16410 36-223); assay: FACS on Jurkat cells which express huCTLA-4 but not PD-1, anti-human Fc secondary
T2 construct: also called huCTLA-4; CHO cells expressing human CTLA-4
T2 sequence: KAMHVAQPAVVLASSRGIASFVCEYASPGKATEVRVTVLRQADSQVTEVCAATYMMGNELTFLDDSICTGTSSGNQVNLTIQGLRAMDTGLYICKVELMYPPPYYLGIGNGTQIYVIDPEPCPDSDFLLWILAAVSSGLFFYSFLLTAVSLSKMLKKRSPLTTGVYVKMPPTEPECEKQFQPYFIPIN
From the text: Binding of the DART and TRIDENT molecules to human CTLA-4 was detected using anti-human FC secondary Ab (FACS).

[3] = target: T3, His-tagged soluble cynomolgus monkey CTLA-4 (cynomolgus monkey, UniProt G7PL88 36-161); assay: BIACORE (SPR); His-tagged soluble cynomolgus monkey CTLA-4 captured on anti-PentaHis, binding molecule 12.5-200 nM as analyte; avidity by separate ka/kd 1:1 fit
T3 construct: extracellular domain; also called Cyno CTLA-4
T3 sequence: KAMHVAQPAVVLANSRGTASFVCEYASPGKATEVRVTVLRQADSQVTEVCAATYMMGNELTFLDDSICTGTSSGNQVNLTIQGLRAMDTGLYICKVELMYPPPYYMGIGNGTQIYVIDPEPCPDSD
Procedure: (§1) Briefly, His-tagged soluble CTLA-4 (an extracellular portion of human or cynomolgus monkey CTLA-4 fused to a histidine-containing peptide) was captured on immobilized anti-PentaHis and then different concentrations (12.5-200 nM) of the CTLA-4 binding molecules were passed over the immobilized CTLA-4 proteins. The kinetics of binding were determined via BIACORE® analysis (affinity by 1:1 Langmuir binding model (simultaneous ka/kd); or avidity by separate ka/kd 1:1 fit).

[4] = target: T3, His-tagged soluble cynomolgus monkey …; assay: BIACORE (SPR); His-tagged soluble cynomolgus monkey CTLA-4 captured on anti-PentaHis, binding molecule 12.5-200 nM as analyte; affinity by 1:1 Langmuir binding model
Procedure: as §1

T1 sequence (Q15116 25-170 limits assumed): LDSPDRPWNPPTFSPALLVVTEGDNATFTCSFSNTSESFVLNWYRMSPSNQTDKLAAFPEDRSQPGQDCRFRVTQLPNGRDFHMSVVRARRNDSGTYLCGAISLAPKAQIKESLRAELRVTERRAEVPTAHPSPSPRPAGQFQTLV

- binding result [1]: binds
B1: DART C (bispecific antibody)
chain 1: not shown
chain 2: EIVLTQSPATLSLSPGERATLSCRASESVDNYGMSFMNWFQQKPGQPPKLLIHAASNQGSGVPSRFSGSGSGTDFTLTISSLEPEDFAVYFCQQSKEVPYTFGGGTKVEIKGGGSGGGGQVQLVESGGGVVQPGRSLRLSCAASGFTFSSYTMHWVRQAPGKGLEWVTFISYDGSNKHYADSVKGRFTVSRDNSKNTLYLQMNSLRAEDTAIYYCARTGWLGPFDYWGQGTLVTVSSGGCGGGKVAACKEKVAALKEKVAALKEKVAALKE
notes: Four-chain Fc Region-containing diabody, two PD-1 sites (PD-1 mAb 6-ISQ) and two CTLA-4 sites (CTLA-4 mAb 3), IgG4 Fc, E/K-coils

- EC50 [2]: 6.56 nM
B2: PD-1 mAb 6 G4P (antibody, human IgG4 S228P, kappa, V domains shown)
VH: QVQLVQSGAEVKKPGASVKVSCKASGYSFTSYWMNWVRQAPGQGLEWIGVIHPSDSETWLDQKFKDRVTITVDKSTSTAYMELSSLRSEDTAVYYCAREHYGTSPFAYWGQGTLVTVSS
VL: EIVLTQSPATLSLSPGERATLSCRASESVDNYGMSFMNWFQQKPGQPPKLLIHAASNQGSGVPSRFSGSGSGTDFTLTISSLEPEDFAVYFCQQSKEVPYTFGGGTKVEIKR
notes: IgG4 with stabilized hinge, kappa light chain; also called the PD-1 antibody; parental anti-PD-1 antibody

- Kd [3]: 4.9 nM
B3: DART D (bispecific antibody, human IgG4 S228P)
chain 1: EIVLTQSPATLSLSPGERATLSCRASESVDNYGMSFMNWFQQKPGQPPKLLIHAASNQGSGVPSRFSGSGSGTDFTLTISSLEPEDFAVYFCQQSKEVPYTFGGGTKVEIKGGGSGGGGQVQLVESGGGVVQPGRSLRLSCAASGFTFSSYTMHWVRQAPGKGLEWVTFISYDGSNKHYADSVKGRFTVSRDNSKNTLYLQMNSLRAEDTAIYYCARTGWLGPFDYWGQGTLVTVSSGGCGGGEVAACEKEVAALEKEVAALEKEVAALEKESKYGPPCPPCPAPEFLGGPSVFLFPPKPKDTLYITREPEVTCVVVDVSQEDPEVQFNWYVDGVEVHNAKTKPREEQFNSTYRVVSVLTVLHQDWLNGKEYKCKVSNKGLPSSIEKTISKAKGQPREPQVYTLPPSQEEMTKNQVSLTCLVKGFYPSDIAVEWESNGQPENNYKTTPPVLDSDGSFFLYSRLTVDKSRWQEGNVFSCSVMHEALHNHYTQKSLSLSLG
chain 2: not shown
notes: Four-chain Fc Region-containing diabody, two PD-1 sites (PD-1 mAb 6-ISQ) and two CTLA-4 sites (CTLA-4 mAb 3), IgG4 (YTE) Fc, E/K-coils

- Kd [4]: 260 nM
B4: TRIDENT A (bispecific antibody, human IgG4 S228P, kappa)
chain 1: EIVLTQSPATLSLSPGERATLSCRASESVDNYGMSFMNWFQQKPGQPPKLLIHAASNQGSGVPSRFSGSGSGTDFTLTISSLEPEDFAVYFCQQSKEVPYTFGGGTKVEIKGGGSGGGGQVQLVQSGAEVKKPGASVKVSCKASGYSFTSYWMNWVRQAPGQGLEWIGVIHPSDSETWLDQKFKDRVTITVDKSTSTAYMELSSLRSEDTAVYYCAREHYGTSPFAYWGQGTLVTVSSGGCGGGEVAACEKEVAALEKEVAALEKEVAALEKESKYGPPCPPCPAPEFLGGPSVFLFPPKPKDTLYITREPEVTCVVVDVSQEDPEVQFNWYVDGVEVHNAKTKPREEQFNSTYRVVSVLTVLHQDWLNGKEYKCKVSNKGLPSSIEKTISKAKGQPREPQVYTLPPSQEEMTKNQVSLWCLVKGFYPSDIAVEWESNGQPENNYKTTPPVLDSDGSFFLYSRLTVDKSRWQEGNVFSCSVMHEALHNHYTQKSLSLSLG
chain 2: EIVLTQSPATLSLSPGERATLSCRASESVDNYGMSFMNWFQQKPGQPPKLLIHAASNQGSGVPSRFSGSGSGTDFTLTISSLEPEDFAVYFCQQSKEVPYTFGGGTKVEIKGGGSGGGGQVQLVQSGAEVKKPGASVKVSCKASGYSFTSYWMNWVRQAPGQGLEWIGVIHPSDSETWLDQKFKDRVTITVDKSTSTAYMELSSLRSEDTAVYYCAREHYGTSPFAYWGQGTLVTVSSGGCGGGKVAACKEKVAALKEKVAALKEKVAALKE
heavy: QVQLVESGGGVVQPGRSLRLSCAASGFTFSSYTMHWVRQAPGKGLEWVTFISYDGSNKHYADSVKGRFTVSRDNSKNTLYLQMNSLRAEDTAIYYCARTGWLGPFDYWGQGTLVTVSSASTKGPSVFPLAPCSRSTSESTAALGCLVKDYFPEPVTVSWNSGALTSGVHTFPAVLQSSGLYSLSSVVTVPSSSLGTKTYTCNVDHKPSNTKVDKRVESKYGPPCPPCPAPEFLGGPSVFLFPPKPKDTLYITREPEVTCVVVDVSQEDPEVQFNWYVDGVEVHNAKTKPREEQFNSTYRVVSVLTVLHQDWLNGKEYKCKVSNKGLPSSIEKTISKAKGQPREPQVYTLPPSQEEMTKNQVSLSCAVKGFYPSDIAVEWESNGQPENNYKTTPPVLDSDGSFFLVSRLTVDKSRWQEGNVFSCSVMHEALHNRYTQKSLSLSLG
light: not shown
